Experimental data reported in the RNAGym collection of RNA variant scans (doi:10.1073/pnas.2313332121).

B1: TPR t1 (parent)
chain: GACCAAUCUGCCCUCAGAGCUCGAGAACAUCUUCGGAUGCAGAGGAGGCAGGCUUCGGUGGCGCGAUAGCGCCAACGUCCUCAACCUCCAAUGCAUCCCACCACAUGAUGAUGCCUGAAGAGCCUUGGUUUUUUG

Variants of: B1
Assay: polymerase ribozyme fitness, log enrichment relative to wild type (log ratio); higher = more active; in vitro selection for triplet polymerase activity
Summary of the method: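 Mutant libraries of each subunit of a heterodimeric triplet polymerase ribozyme were built by PCR and transcribed. Each library went through one round of in vitro selection in triplicate: annealing with biotinylated primer, partner subunit and triplets, frozen incubation at −7 °C, gel excision of extended constructs, streptavidin-bead capture and RT-PCR. Input and output libraries were Illumina-sequenced; only genotypes with ≥10 input reads and ≥1 read per output were kept. Fitness is log2(genotype enrichment/wild-type enrichment), using inverse-variance-weighted replicate averages.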

Variant	polymerase ribozyme fitness (log ratio)
A41U C62G	-3.92
C40U G69C U78A G110A	-5.28
C40G G51A C56A C72A A121U	-3.83
C40U G69A C72U C124A	-1.11
C40G C53G G61C C104A G113A	-4.09
A41U C80A C104U	-6.34
A41C G117U	-2.87
G42A C124A	-0.186
A41U G135U	-2.4
G42C G127A	-2.97
A41U A43G G48A G63A A90G C104U G120U	-4.4
A41C A74G C98U	-1.89
A41G A46U	-3.31
G42U A46U U96G	-2.26
C40G U112A	1.38
G42A C72A C104A U130C	-5.17
A41G G69A C85A	-5.81
A41G U54A G61C	-2.03
G42A G127U	-2.7
C40U C124G	1.52
A41C U106C A111C	-2.11

Variant	polymerase ribozyme fitness (log ratio)
C40G G110A U132A	-1.48
C40U U59C C85G	-2.73
G42C A50U C82A	-2.49
C40G G77U C101G U112A	-1.23
C40U C62U	-0.882
C40U A41C G71A	-2.9
G42C C114A	-2.26
G42C C94A	-2.23
C40G C53U G127C	-1.33
A41C C64U U78C U106A	-1.57
A41C G69U C82U A105U C123A	-1.3
A41G C99A A119G U125A	-6.99
G42A C88A A121U	0.406
A41C C82U	-1.12
A41U A66G G71C U78A	-5.05
G42A G60U C82U U112G G127C	-3.6
C40U C73U	-0.508
A41U A90C C124G	0.559
G42A C56U C80U	-3.08
A41U C89U G113U G117U	-5.95
A41C G44U C115A G122U U130G	-4.66

Variant	polymerase ribozyme fitness (log ratio)
A41C G48A G60A C86U U96G	-3.39
A41C C53U	-0.83
A41G G52C G58U C62A U78C A111C G127A	-4.32
A41G A118G G120U U130A	-1.43
A41U C72G U125G U133G	-2.77
G42A U55A C82G	-2.94
A41U U130C	-1.35
G42C U55C G60A C124G U132A	0.349
G42C C53U G93A	-3.13
G42A G60U C114G U129C	-3.48
G42A C62U A84C	-3.09
A41G C70U C82A U125G	-1.79
C40U U92C	-1.86
G42U A43U G63C U78C	-3
G42C G110C	-6.03
A41C G63C A90C C123G G128C	-3.12
A41G C73A C82A C115A G135U	-2.65
C40U C49A C72G A74U C94U G117C	-6.96
C40U A41C	-2.44
G42C C56U U81A C124G U132A	-0.851
G42C G69U C70G	-1.55

Variant	polymerase ribozyme fitness (log ratio)
A41U C124G	0.981
C40U G48A A50C C72A	0.216
C40U G60C C82U A90G A95U C97A C123G	-7.02
C40G U55G U78G	-2.04
G42C C53A C85U C114G C124U U133G	-3.5
C40U U130G	-0.974
G42A G45U G57U C88U U130A	-3.68
A41U C104A	-3.22
A41U G113C	-3.1
A41U G113U	-3.98
A41G C49G C82U C85U U131G	-1.67
G42C A43G A84C C114A	-2
G42C C62G	-4.74
C40U A90G C102G	-4.16
C40G C56A G69C C115G	-6.15
A41U C64U	-1.24
C40U A43U A90G G113U	-3.26
A41U G42A G52A	-3.18
C40U C56A A74C U130C	-1.15
C40U C72G U106A C123G U126A U131A	-1.25
G42C C49U C79A C102G G120A	-7.51
